Source: IntAct's records for PubMed 19749176

B1: Serine/threonine-protein phosphatase PP1-1 (Saccharomyces cerevisiae), P20604 (parent)
chain: MVSRGPDEWLETIKKCQALTENEMKQLCEMVKELLMEESNIQPVQTPVTVCGDIHGQFHDLLELFRTAGGFPDDINYIFLGDYVDRGYYSLETFTLLMCLKVKYPAKITLVRGNHESRQITQVYGFYEECLNKYGSTTVWKYCCQVFDFLTLAAIIDGKILCVHGGLSPEIRMLDQIRVLSRAQEVPHEGGFSDLLWSDPDNVEAWQVSPRGAGWLFGSKVAREFNHVNGLNLIARAHQLVMEGFKYHFPEKDVVTVWSAPNYCYRCGNVASVMKVDEDLEPTFKIFSAVPDDYIRESTANHNNQRAGYFL
partner: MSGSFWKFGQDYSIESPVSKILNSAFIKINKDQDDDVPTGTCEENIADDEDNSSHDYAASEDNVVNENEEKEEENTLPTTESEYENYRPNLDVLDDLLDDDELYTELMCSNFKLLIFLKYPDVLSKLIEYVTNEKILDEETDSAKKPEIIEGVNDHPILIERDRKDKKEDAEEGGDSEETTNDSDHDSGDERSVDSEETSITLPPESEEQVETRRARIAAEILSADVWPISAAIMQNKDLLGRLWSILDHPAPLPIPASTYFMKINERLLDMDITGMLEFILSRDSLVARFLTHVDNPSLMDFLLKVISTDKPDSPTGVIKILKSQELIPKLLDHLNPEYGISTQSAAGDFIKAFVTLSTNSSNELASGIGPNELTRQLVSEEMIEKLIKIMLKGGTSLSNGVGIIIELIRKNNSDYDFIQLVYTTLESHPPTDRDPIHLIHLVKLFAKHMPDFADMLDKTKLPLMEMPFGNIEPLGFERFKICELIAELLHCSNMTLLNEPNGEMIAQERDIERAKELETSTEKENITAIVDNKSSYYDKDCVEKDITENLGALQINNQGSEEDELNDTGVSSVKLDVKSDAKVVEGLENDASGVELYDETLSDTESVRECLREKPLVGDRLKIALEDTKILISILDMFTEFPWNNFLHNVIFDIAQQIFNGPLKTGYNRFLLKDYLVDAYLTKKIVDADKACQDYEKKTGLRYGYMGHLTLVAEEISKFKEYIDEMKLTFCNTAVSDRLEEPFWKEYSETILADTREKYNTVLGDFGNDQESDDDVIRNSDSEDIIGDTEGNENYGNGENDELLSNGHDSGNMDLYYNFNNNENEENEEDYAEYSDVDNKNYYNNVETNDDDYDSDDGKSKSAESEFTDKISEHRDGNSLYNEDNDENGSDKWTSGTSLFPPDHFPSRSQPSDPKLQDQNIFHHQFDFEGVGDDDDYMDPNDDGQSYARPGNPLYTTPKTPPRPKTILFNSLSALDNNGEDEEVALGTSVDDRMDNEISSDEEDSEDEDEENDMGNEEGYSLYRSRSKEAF
B2: Serine/threonine-protein phosphatase PP1-1 (Saccharomyces cerevisiae), P20604 (parent)
chain: B1 chain
partner: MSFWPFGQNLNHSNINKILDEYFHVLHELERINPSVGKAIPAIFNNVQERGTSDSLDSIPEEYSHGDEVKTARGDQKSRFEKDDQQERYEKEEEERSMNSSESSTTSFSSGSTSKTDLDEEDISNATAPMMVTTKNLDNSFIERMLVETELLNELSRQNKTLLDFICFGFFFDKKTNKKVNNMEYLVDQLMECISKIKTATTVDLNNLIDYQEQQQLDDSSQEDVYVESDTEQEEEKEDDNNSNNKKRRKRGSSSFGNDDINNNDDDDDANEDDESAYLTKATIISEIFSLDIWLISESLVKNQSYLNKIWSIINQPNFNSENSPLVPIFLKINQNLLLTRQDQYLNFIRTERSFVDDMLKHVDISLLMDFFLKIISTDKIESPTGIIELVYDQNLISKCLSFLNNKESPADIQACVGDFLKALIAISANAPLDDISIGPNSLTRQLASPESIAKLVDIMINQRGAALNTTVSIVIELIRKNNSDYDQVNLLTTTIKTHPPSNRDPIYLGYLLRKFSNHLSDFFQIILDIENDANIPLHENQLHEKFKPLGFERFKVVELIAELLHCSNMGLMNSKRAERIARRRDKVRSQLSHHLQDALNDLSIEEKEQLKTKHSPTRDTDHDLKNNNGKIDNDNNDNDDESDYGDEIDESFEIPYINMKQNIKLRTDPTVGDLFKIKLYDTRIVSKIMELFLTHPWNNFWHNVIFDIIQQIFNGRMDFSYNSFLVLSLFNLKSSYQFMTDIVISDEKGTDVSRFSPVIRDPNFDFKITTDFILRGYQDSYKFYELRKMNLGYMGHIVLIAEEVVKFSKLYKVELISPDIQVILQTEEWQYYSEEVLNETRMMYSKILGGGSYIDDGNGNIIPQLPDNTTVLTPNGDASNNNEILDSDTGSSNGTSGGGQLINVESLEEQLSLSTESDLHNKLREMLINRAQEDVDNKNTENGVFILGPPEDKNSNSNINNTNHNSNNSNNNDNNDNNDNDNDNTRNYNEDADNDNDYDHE

Variants of: B1
Conditions: with sa190_yeast SAP190, P36123

Row | effect of a mutation on the interaction | Variant
1 | decreasing interaction | MVSRGPDEWLETIKKCQALTENEMKQLCEMVKELLMAASNIQPVQTPVTVCGDIHGQFHDLLELFRTAGGFPDDINYIFLGDYVDRGYYSLETFTLLMCLKVKYPAKITLVRGNHESRQITQVYGFYEECLNKYGSTTVWKYCCQVFDFLTLAAIIDGKILCVHGGLSPEIRMLDQIRVLSRAQEVPHEGGFSDLLWSDPDNVEAWQVSPRGAGWLFGSKVAREFNHVNGLNLIARAHQLVMEGFKYHFPEKDVVTVWSAPNYCYRCGNVASVMKVDEDLEPTFKIFSAVPDDYIRESTANHNNQRAGYFL [E37A;E38A]

Variants of: B2
Conditions: with sa155_yeast SAP155, P43612

Row | effect of a mutation on the interaction | Variant
2 | decreasing interaction | MVSRGPDEWLETIKKCQALTENEMKQLCEMVKELLMAASNIQPVQTPVTVCGDIHGQFHDLLELFRTAGGFPDDINYIFLGDYVDRGYYSLETFTLLMCLKVKYPAKITLVRGNHESRQITQVYGFYEECLNKYGSTTVWKYCCQVFDFLTLAAIIDGKILCVHGGLSPEIRMLDQIRVLSRAQEVPHEGGFSDLLWSDPDNVEAWQVSPRGAGWLFGSKVAREFNHVNGLNLIARAHQLVMEGFKYHFPEKDVVTVWSAPNYCYRCGNVASVMKVDEDLEPTFKIFSAVPDDYIRESTANHNNQRAGYFL [E37A;E38A]
